Test results reported in patent publication US20220168400A1, “USE OF A MANGANESE SUPEROXIDE DISMUTASE WITH HIGH STABILITY IN THE PREVENTION OR TREATMENT OF CEREBRAL STROKE” (CARRY HEALTH BIOPHARMACEUTICALS (HANGZHOU) CO., LTD., priority 2019, published 2022).
Several values for one entry are separate records, joined by “and”; a condition that tells them apart may be missing. Identical values can stand only once.

Assays:
[1] = system: cerebral hemorrhage model in wild-type AB strain zebrafish; test: Simvastatin-induced cerebral hemorrhage model in zebrafish (incidence); type: in vivo; conditions: for Number of zebrafish with cerebral hemorrhage / Incidence of cerebral hemorrhage: n = 30; for Incidence of cerebral hemorrhage: model control 83%
Description: 1 dpf wild-type AB strain zebrafish was administered with an aqueous simvastatin solution (0.5 μM) for 18 hours to establish a cerebral hemorrhage model in zebrafish. 180 wild-type AB strain zebrafishes at 1 day post fertilization (1 dpf) were randomly selected and put in a six-well plate, 30 per well (experiment group). Simvastatin was used to induce a cerebral hemorrhage model in zebrafish. Aqueous MS-SOD solutions with concentrations of 222, 667 and 2000 μg/mL were administrated respectively, the concentration of positive control drug icariin was 30 μM, and the normal control group and the model control group were set at the same time. The volume of each well was 3 mL. After 18 hours of co-treatment with MS-SOD and simvastatin, 30 zebrafishes from each group were selected and observed under a microscope, photos were taken and saved. The number of zebrafish with cerebral hemorrhage was counted, and the incidence of cerebral hemorrhage in zebrafish of each experiment group was calculated.

[2] = system: cerebral hemorrhage model in wild-type AB strain zebrafish; test: Movement velocity in simvastatin-induced cerebral hemorrhage model in zebrafish; type: in vivo; conditions: for Movement velocity (mean ± SE): n = 10, model control 80, normal control 198 mm/s
Description: 5 dpf wild-type AB strain zebrafish was administered with an aqueous simvastatin solution (0.5 μM) for 18 hours to establish a cerebral hemorrhage model in zebrafish. 180 wild-type AB strain zebrafishes at 5 days post fertilization (5 dpf) were randomly selected and put in a six-well plate, 30 per well (experiment group). Aqueous MS-SOD solutions with concentrations of 222, 667 and 2000 μg/mL were administrated respectively, the concentration of positive control drug icariin was 30 μM, and the normal control group and the model control group were set at the same time. The volume of each well was 3 mL. After treatment of zebrafishes with samples for 4 hours, except for the normal control group, the other experiment groups were treated with simvastatin for 18 hours to establish the cerebral hemorrhage model. After the treatment, 10 zebrafishes from each group were randomly selected to measure the movement velocity (V) of zebrafish using a behavioral analyzer. The statistical significance of the movement velocity was used to evaluate the behavioral improvement effect of MS-SOD on cerebral hemorrhage. The formula of the behavioral improvement effect of MS-SOD on cerebral hemorrhage was as follows: [formula] Statistical analysis was performed using variance analysis and Dunnett's T-test, and p<0.05 indicated a significant difference.

[3] = system: middle cerebral artery occlusion (MCAO) model in C57BL/6J mice; test: Modified neurological severity score in MCAO model; type: in vivo; conditions: vs model group
Description: (3) MS-SOD1 group (10 mice): mice aged 4 weeks were fed with drinking water supplemented with MS-SOD for 4 weeks (3 U/day/g body weight), and then subjected to establish middle cerebral artery occlusion model;
(4) MS-SOD2 group (10 mice): after establishing middle cerebral artery occlusion model, the mice were intragastrically administered with MS-SOD 600 U once when they waked up from the anesthesia. […]
The procedure was performed on each group of mice. […] The mice in groups 2-4 were scored by double blind method.
Finally, the differences of different intervention conditions and MCAO model establishment on the degree of cerebral injury and neurological severity in mice were analyzed. All data were expressed as mean ±standard deviation. […]

[4] = system: cerebral ischemia model in Albino strain zebrafish; test: Ponatinib-induced cerebral ischemia model in zebrafish; type: in vivo; conditions: for Number of zebrafish with cerebral ischemia / Incidence of cerebral ischemia: n = 20; for Incidence of cerebral ischemia: model control 100%
Description: Melanin allele mutated Albino strain zebrafish at 2 days post fertilization (2 dpf) was administered with an aqueous ponatinib solution (1 μg/mL) for 18 hours to establish a cerebral ischemia model in zebrafish. 180 melanin allele mutated Albino strain zebrafishes at 2 days post fertilization (2 dpf) were randomly selected. 30 zebrafishes were treated in each well (experiment group), and aqueous MS-SOD solutions with concentrations of 222, 667 and 2000 μg/mL were administrated respectively, the concentration of positive control drug aspirin was 50 μg/m L, and the normal control group and the model control group were set at the same time. The volume of each well was 3 mL. After MS-SOD treatment for a period of time, except for the normal control group, all the other experiment groups were simultaneously administrated with aqueous ponatinib solution to induce the cerebral ischemia model in zebrafish. After 18 hours of co-treatment with MS-SOD and ponatinib, 20 fish were randomly selected from each well and stained with o-Dianisidine. After staining, photos were taken and data were collected to count the number of zebrafish with cerebral ischemia and calculate the incidence of cerebral ischemia in zebrafish of each experiment group.

[5] = Specific activity of MS-SOD; type: biochemical; conditions: MS-SOD used in the zebrafish experiments

B1: MS-SOD: manganese superoxide dismutase with high stability, gene from Thermus thermophilus HB27 expressed in E. coli; amino acid sequence SEQ ID NO: 4 (protein)
chain: MPYPFKLPDLGYPYEALEPHIDAKTMEIHHQKHHGAYVTNLNAALEKYPYLHGVEVEVLLRHLAALPQDIQTAVRNNGGGHLNHSLFWRLLTPGGAKEPVGELKKAIDEQFGGFQALKEKLTQAAMGRFGSGWAWLVKDPFGKLHVLSTPNQDNPVMEGFTPIVGIDVWEHAYYLKYQNRRADYLQAIWNVLNWDVAEEFFKKA
modifications: Amino acid sequence for MS-SOD
- Improvement effect on cerebral hemorrhage ([1]; MS-SOD 222 μg/mL): 28%
- Number of zebrafish with cerebral hemorrhage ([1]; MS-SOD 222 μg/mL): 18
- Incidence of cerebral hemorrhage ([1]; MS-SOD 222 μg/mL): 60%
- Improvement effect on cerebral hemorrhage ([1]; MS-SOD 667 μg/mL): 20%
- Number of zebrafish with cerebral hemorrhage ([1]; MS-SOD 667 μg/mL): 20
- Incidence of cerebral hemorrhage ([1]; MS-SOD 667 μg/mL): 67%
- Improvement effect on cerebral hemorrhage ([1]; MS-SOD 2000 μg/mL): 32%
- Number of zebrafish with cerebral hemorrhage ([1]; MS-SOD 2000 μg/mL): 17
- Incidence of cerebral hemorrhage ([1]; MS-SOD 2000 μg/mL): 57%
- Movement improvement effect ([2]; MS-SOD 222 μg/mL): −2%
- Movement velocity (mean ± SE) ([2]; MS-SOD 222 μg/mL): 78 mm/s and 78 ± 4 mm/s
- Movement improvement effect ([2]; MS-SOD 667 μg/mL): 7%
- Movement velocity (mean ± SE) ([2]; MS-SOD 667 μg/mL): 88 mm/s and 88 ± 3 mm/s
- Movement improvement effect ([2]; MS-SOD 2000 μg/mL): 53%
- Movement velocity (mean ± SE) ([2]; MS-SOD 2000 μg/mL): 143 mm/s and 143 ± 24 mm/s
- neurological severity score ([3]; MS-SOD1 group: 3 U/day/g body weight for 4 weeks before MCAO, P=0.281): not significantly improved
- neurological severity score (mNSS) ([3]; MS-SOD2 group: 600 U intragastrically once after MCAO, P=0.05): significantly reduced
- Improvement effect on cerebral ischemia ([4]; MS-SOD 222 μg/mL): 60%
- Number of zebrafish with cerebral ischemia ([4]; MS-SOD 222 μg/mL): 8
- Incidence of cerebral ischemia ([4]; MS-SOD 222 μg/mL): 40%
- Improvement effect on cerebral ischemia ([4]; MS-SOD 667 μg/mL): 65%
- Number of zebrafish with cerebral ischemia ([4]; MS-SOD 667 μg/mL): 7
- Incidence of cerebral ischemia ([4]; MS-SOD 667 μg/mL): 35%
- Improvement effect on cerebral ischemia ([4]; MS-SOD 2000 μg/mL): 55%
- Number of zebrafish with cerebral ischemia ([4]; MS-SOD 2000 μg/mL): 9
- Incidence of cerebral ischemia ([4]; MS-SOD 2000 μg/mL): 45%
- specific activity [5]: 5 U/μg
